Experimental data reported in US20250092426, “CAS ENDONUCLEASES AND RELATED METHODS” (Flagship Pioneering Innovations VII, LLC, published 2025).

Target: T1, CasEnd-5 (synthetic construct)
T1 chain: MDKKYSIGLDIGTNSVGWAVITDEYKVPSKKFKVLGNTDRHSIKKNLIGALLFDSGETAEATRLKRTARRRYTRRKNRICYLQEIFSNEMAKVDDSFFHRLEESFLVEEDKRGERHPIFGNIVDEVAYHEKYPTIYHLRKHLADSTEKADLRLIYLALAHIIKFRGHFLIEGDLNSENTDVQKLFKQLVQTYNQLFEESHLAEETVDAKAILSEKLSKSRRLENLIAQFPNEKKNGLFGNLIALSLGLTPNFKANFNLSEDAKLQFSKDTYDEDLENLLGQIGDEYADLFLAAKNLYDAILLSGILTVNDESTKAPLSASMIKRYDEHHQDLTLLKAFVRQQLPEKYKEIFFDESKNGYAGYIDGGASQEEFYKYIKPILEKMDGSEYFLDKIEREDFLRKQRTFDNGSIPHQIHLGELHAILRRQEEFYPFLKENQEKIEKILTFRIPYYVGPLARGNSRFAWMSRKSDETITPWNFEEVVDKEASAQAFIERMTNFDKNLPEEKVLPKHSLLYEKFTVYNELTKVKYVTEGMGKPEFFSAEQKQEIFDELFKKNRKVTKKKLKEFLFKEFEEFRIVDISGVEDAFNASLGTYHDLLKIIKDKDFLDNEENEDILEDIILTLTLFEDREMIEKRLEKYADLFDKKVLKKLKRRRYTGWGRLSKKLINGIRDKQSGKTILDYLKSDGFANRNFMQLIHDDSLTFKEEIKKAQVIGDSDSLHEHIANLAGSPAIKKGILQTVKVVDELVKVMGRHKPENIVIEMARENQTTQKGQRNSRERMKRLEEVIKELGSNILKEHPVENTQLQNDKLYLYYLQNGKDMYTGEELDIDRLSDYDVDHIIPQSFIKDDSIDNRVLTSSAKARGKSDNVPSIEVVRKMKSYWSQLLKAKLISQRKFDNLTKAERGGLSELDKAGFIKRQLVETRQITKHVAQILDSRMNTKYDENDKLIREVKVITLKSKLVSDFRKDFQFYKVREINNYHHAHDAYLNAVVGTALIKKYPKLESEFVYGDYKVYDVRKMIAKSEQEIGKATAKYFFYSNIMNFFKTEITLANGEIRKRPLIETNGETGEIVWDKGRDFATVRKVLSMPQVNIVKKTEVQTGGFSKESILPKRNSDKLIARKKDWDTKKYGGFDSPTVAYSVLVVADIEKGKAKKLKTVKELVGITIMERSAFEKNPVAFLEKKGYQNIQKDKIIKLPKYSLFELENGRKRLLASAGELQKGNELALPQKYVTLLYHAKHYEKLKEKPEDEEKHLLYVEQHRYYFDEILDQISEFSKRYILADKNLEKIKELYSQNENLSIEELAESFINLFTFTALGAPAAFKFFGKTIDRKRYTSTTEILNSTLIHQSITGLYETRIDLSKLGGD
Assay: cell_activity; +++; HEK293T; PAM not stated
Method in brief: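 BFP-to-GFP conversion via reverse transcriptase fusion with each Cas endonuclease plus template RNA: 200 ng of each plasmid nucleofected into 250,000 BFP-expressing HEK293T cells (program DS-150). Percent GFP+ cells by flow cytometry at day 4 measured editing.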

B1: BFP-to-GFP template RNA ; BFP reporter protospacer (ssRNA ; dsDNA)
RNA: GCCGAAGCACUGCACGCCGUGUUUUAGAGCUAGAAAUAGCAAGUUAAAAUAAGGCUAGUCCGUUAUCAACUUGAAAAAGUGGCACCGAGUCGGUGCACCCUGACGUACGGCGUGCAGUGCUU
DNA 1: GCCGAAGCACTGCACGCCGT
DNA 2: ACGGCGTGCAGTGCTTCGGC
  activity: ≥ 100 % of reference
